# Data from patent US20190338048A1.
# Read-outs that look alike come from different tables or passages of the source.
# Legend:
# [1] = molecular target: Pertuzumab kappa light chain Q124E_V133D (L2), N-terminal HA tag; assay: LCCA, SPR of light chain tags
# [2] = molecular target: Pertuzumab kappa light chain Q124E_V133D (L2), N-terminal HA tag; assay: LCCA, SPR of light chain tags; remark: listed apart in the source
# [3] = molecular target: Pertuzumab kappa light chain Q124E_V133D (L2), N-terminal HA tag; assay: LCCA, SPR of light chain tags; remark: listed apart in the source
# [4] = molecular target: CAT-2200 lambda light chain S176K_Y178K (L1), N-terminal FLAG tag; assay: LCCA, SPR of light chain tags
# [5] = molecular target: CAT-2200 lambda light chain S176K_Y178R (L1), N-terminal FLAG tag; assay: LCCA, SPR of light chain tags
# [6] = molecular target: Pertuzumab kappa light chain V133D (L2), N-terminal HA tag; assay: LCCA, SPR of light chain tags
# [7] = molecular target: Pertuzumab kappa light chain V133D (L2), N-terminal HA tag; assay: LCCA, SPR of light chain tags; remark: listed apart in the source
# [8] = molecular target: Pertuzumab kappa light chain Q124E_Q160E_T180E (L2), N-terminal HA tag; assay: LCCA, SPR of light chain tags
# [9] = molecular target: Pertuzumab kappa light chain Q124E_Q160E_T180E (L2), N-terminal HA tag; assay: LCCA, SPR of light chain tags; remark: listed apart in the source
# [10] = molecular target: Pertuzumab kappa light chain Q124E_Q160E_T180E (L2), N-terminal HA tag; assay: LCCA, SPR of light chain tags; remark: listed apart in the source
# [11] = molecular target: CAT-2200 lambda light chain S176K_Y178L (L1), N-terminal FLAG tag; assay: LCCA, SPR of light chain tags
# [12] = molecular target: Pertuzumab kappa light chain S176V (L2), N-terminal HA tag; assay: LCCA, SPR of light chain tags
# [13] = molecular target: Recombinant HER2 protein (HER2-ECD) (UniProt P04626); assay: SPR
# [14] = molecular target: Recombinant HER2 protein (HER2-ECD) (UniProt P04626); assay: SPR as for KD
# [15] = molecular target: Recombinant HER2 protein (HER2-ECD) (UniProt P04626); assay: SPR, ProteOn XPR36
# [16] = molecular target: Recombinant HER2 protein (HER2-ECD) (UniProt P04626); assay: SPR, Fab captured via anti-penta-His, HER2 as analyte
substance,measurement,setting,value
"Pertuzumab Fab heavy chain L143R (H2), ABD2-His6 tagged",H2L2:H2L1 normalized median ratio,[1],82%
same,H2L2:H2L1 normalized median scalar value ln(r1/f1),[1],1.53
same,H2L2:H2L1 normalized median ratio,[2],79%
same,H2L2:H2L1 normalized median scalar value ln(r1/f1),[2],1.3
same,H2L2:H2L1 normalized median ratio,[3],86%
same,H2L2:H2L1 normalized median scalar value ln(r1/f1),[3],1.84
same,H2L2:H2L1 normalized median ratio,[4],21%
same,H2L2:H2L1 normalized median ratio,[5],14%
"Pertuzumab Fab heavy chain L143S_S186K_S188T (H2), ABD2-His6 tagged",H2L2:H2L1 normalized median ratio,[6],64%
same,H2L2:H2L1 normalized median scalar value ln(r1/f1),[6],0.58
same,H2L2:H2L1 normalized median ratio,[7],63%
same,H2L2:H2L1 normalized median scalar value ln(r1/f1),[7],0.54
"Pertuzumab Fab heavy chain Q179K (H2), ABD2-His6 tagged",H2L2:H2L1 normalized median ratio,[8],87%
same,H2L2:H2L1 normalized median scalar value ln(r1/f1),[8],1.88
same,H2L2:H2L1 normalized median ratio,[9],91%
same,H2L2:H2L1 normalized median scalar value ln(r1/f1),[9],2.33
same,H2L2:H2L1 normalized median ratio,[10],96%
same,H2L2:H2L1 normalized median scalar value ln(r1/f1),[10],3.21
same,H2L2:H2L1 normalized median ratio,[4],9%
same,H2L2:H2L1 normalized median ratio,[11],13%
same,H2L2:H2L1 normalized median ratio,[5],4%
"Pertuzumab Fab heavy chain S186I_S188W (H2), ABD2-His6 tagged",H2L2:H2L1 normalized median ratio,[12],40%
same,H2L2:H2L1 normalized median scalar value ln(r1/f1),[12],-0.39
"Pertuzumab Fab heavy chain S186L_S188W (H2), ABD2-His6 tagged",H2L2:H2L1 normalized median ratio,[12],40%
same,H2L2:H2L1 normalized median scalar value ln(r1/f1),[12],-0.39
"Pertuzumab Fab heavy chain S186R (H2), ABD2-His6 tagged",H2L2:H2L1 normalized median ratio,[8],89%
same,H2L2:H2L1 normalized median scalar value ln(r1/f1),[8],2.07
same,H2L2:H2L1 normalized median ratio,[9],96%
same,H2L2:H2L1 normalized median scalar value ln(r1/f1),[9],3.29
same,H2L2:H2L1 normalized median ratio,[10],97%
same,H2L2:H2L1 normalized median scalar value ln(r1/f1),[10],3.46
same,H2L2:H2L1 normalized median ratio,[4],4%
same,H2L2:H2L1 normalized median ratio,[11],11%
"Pertuzumab Fab heterodimer, H2 L45P_L143E_K145T_Q179E / L2 P44F_Q124R_T178R",Kd,[13],5.9 nM
"Pertuzumab Fab heterodimer, H2 Q39E_L143E_K145T_Q179E / L2 Q38R_Q124R_T178R","Change in KD of H2L2 Fab vs wild type, -(log(KD design)-log(KD wt))",[13],0.023
same,Kd,[13],7.4 nM
Pertuzumab Fab with H2 L45P_L124R_Q179K and L2 P44F_V133G_S176D_T180E,Change in KD of H2L2 Fab vs wild type,[13],0.065
same,Kd,[13],6.7 nM
Pertuzumab Fab with H2 Q39E_L124R_Q179K and L2 Q38R_V133G_S176D_T180E,Change in KD of H2L2 Fab vs wild type,[13],0.016
same,Kd,[13],7.5 nM
"Pertuzumab Fab, H2 L45P_L143R / L2 P44F_Q124E_V133D",Kd,[13],5.9 nM
"Pertuzumab Fab, H2 L124R / L2 V133G_S176D","Change in KD of H2L2 Fab vs wild type, -(log(KD design)-log(KD wt))",[14],-0.01 log units
same,Kd,[15],8.28 nM
"Pertuzumab Fab, H2 L143K / L2 Q124E_V133D","Change in KD of H2L2 Fab vs wild type, -(log(KD design)-log(KD wt))",[14],0.04 log units
same,Kd,[15],7.41 nM
"Pertuzumab Fab, H2 Q39E_L143R / L2 Q38R_Q124E_V133D",Kd,[13],7.5 nM
"Pertuzumab Fab, H2 S186K / L2 V133D","Change in KD of H2L2 Fab vs wild type, -(log(KD design)-log(KD wt))",[14],0 log units
same,Kd,[15],8.01 nM
"Pertuzumab Fab, H2 S188K / L2 S131D_V133G_T178F","Change in KD of H2L2 Fab vs wild type, -(log(KD design)-log(KD wt))",[14],-0.02 log units
same,Kd,[15],8.46 nM
"Pertuzumab Fab, H2 S188K / L2 S176E_T178E","Change in KD of H2L2 Fab vs wild type, -(log(KD design)-log(KD wt))",[14],0 log units
same,Kd,[15],8.15 nM
Pertuzumab designed Fab heterodimer H2L2: H2 L45P_L124E_K145T_Q179E / L2 P44F_S131R_V133G_S176R,Kd,[16],5.8 nM
Pertuzumab designed Fab heterodimer H2L2: H2 L45P_L143E_K145T_Q179E / L2 P44F_Q124K_T178R,Kd,[16],6 nM
Pertuzumab designed Fab heterodimer H2L2: H2 Q39E_L124E_K145T_Q179E / L2 Q38R_S131R_V133G_S176R,Kd,[16],7.9 nM
same,Change in KD of H2L2 Fab vs wild type,[13],-0.0084
Pertuzumab designed Fab heterodimer H2L2: H2 Q39E_L143E_K145T_Q179E / L2 Q38R_Q124K_T178R,Kd,[16],7.4 nM
same,Change in KD of H2L2 Fab vs wild type,[13],0.023
